Among the data in patent US20240116985A1 (published 2024) are IC50 and EC50 values, retold here.

Starred links: 1 amine or outer side, 2 acyl side, 3 side chain; linkers in the order of their positions; H or OH if unused. Positions of bridges follow the written chain, without caps; N, C: chain ends. Non-standard residues stand in square brackets, D forms with d. Primed or numbered codes have the meaning given here. B5(11) = 2,2-bis(4-pentenyl)glycine = 2-amino-2-(pent-4-en-1-yl)hept-6-enoic acid (stitching residue, bears both staples), C=CCCCC(CCCC=C)(N[*:1])C(=O)[*:2]; B5(24) = 2-amino-2-(pent-4-en-1-yl)hept-6-enoic acid, 2,2-bis(4-pentenyl)glycine (stitching residue), C=CCCCC(CCCC=C)(N[*:1])C(=O)[*:2]; B5(21) = 2-amino-2-(pent-4-en-1-yl)hept-6-enoic acid, bis(4-pentenyl)glycine (stitching residue), C=CCCCC(CCCC=C)(N[*:1])C(=O)[*:2]; B5(9) = 2-amino-2-(pent-4-en-1-yl)hept-6-enoic acid (2,2-bis(4-pentenyl)glycine), C=CCCCC(CCCC=C)(N[*:1])C(=O)[*:2]; Phe(2-NO2) = N[C@@H](Cc1ccccc1[N+](=O)[O-])C(=O)O; Phe(2-Cl) = N[C@@H](Cc1ccccc1Cl)C(=O)O; Bta = N[C@@H](Cc1csc2ccccc12)C(=O)O; αAllylPro = C=CC[C@@]1(C(=O)O)CCCN1; NMeH = CN[C@@H](Cc1c[nH]cn1)C(=O)O; S8 = C=CCCCCCC[C@](C)(N)C(=O)O

Assay [1] has as its target T1, full-length beta-Catenin (Uniprot ID P35222) (Homo sapiens (Human), UniProt P35222 1-781).
T1 construct: also called bCat; B-Catenin
T1 sequence: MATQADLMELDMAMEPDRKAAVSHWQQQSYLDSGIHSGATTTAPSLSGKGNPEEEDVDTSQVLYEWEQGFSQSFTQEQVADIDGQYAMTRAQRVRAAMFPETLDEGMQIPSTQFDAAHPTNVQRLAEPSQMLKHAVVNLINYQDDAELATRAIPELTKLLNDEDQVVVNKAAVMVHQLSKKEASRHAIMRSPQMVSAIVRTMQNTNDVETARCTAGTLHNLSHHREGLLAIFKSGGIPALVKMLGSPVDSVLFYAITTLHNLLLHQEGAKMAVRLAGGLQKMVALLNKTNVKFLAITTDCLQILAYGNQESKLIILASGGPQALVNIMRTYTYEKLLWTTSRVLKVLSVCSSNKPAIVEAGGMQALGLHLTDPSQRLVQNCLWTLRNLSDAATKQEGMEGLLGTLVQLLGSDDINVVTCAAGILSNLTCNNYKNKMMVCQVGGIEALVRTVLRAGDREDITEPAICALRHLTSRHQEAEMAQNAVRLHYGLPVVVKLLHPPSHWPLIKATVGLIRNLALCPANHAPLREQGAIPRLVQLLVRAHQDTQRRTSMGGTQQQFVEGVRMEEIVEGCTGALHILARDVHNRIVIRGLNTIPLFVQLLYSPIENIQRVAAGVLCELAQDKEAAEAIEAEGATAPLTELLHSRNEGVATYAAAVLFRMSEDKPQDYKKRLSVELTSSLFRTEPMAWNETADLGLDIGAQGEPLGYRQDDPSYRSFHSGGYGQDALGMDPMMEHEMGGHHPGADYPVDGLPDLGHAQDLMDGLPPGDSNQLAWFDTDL
The assay is described as follows: fluorescence polarization competition; full-length beta-catenin, competitor 5FAM-TCF4(10-53) probe. As for the experimental part: (§1) The plate was incubated protected from light for 60 minutes at 20° C. prior to read. Reads were performed on a CLARIOstar plate reader (BMG Labtech) in duplicate, and data were fitted to a 1:1 binding model with hill slope using an in-house script. All provided concentrations are final concentrations.
In general terms: Fluorescence polarisation rises when a labelled molecule tumbles more slowly, as on binding a larger partner.

In assay [2] the target is T2, full-length beta-Catenin (Uniprot ID P35222) (Homo sapiens (Human), UniProt P35222 2-781).
T2 construct: Tags of the recombinant protein are not described for the FP assay; also called bCat; B-Catenin
T2 sequence: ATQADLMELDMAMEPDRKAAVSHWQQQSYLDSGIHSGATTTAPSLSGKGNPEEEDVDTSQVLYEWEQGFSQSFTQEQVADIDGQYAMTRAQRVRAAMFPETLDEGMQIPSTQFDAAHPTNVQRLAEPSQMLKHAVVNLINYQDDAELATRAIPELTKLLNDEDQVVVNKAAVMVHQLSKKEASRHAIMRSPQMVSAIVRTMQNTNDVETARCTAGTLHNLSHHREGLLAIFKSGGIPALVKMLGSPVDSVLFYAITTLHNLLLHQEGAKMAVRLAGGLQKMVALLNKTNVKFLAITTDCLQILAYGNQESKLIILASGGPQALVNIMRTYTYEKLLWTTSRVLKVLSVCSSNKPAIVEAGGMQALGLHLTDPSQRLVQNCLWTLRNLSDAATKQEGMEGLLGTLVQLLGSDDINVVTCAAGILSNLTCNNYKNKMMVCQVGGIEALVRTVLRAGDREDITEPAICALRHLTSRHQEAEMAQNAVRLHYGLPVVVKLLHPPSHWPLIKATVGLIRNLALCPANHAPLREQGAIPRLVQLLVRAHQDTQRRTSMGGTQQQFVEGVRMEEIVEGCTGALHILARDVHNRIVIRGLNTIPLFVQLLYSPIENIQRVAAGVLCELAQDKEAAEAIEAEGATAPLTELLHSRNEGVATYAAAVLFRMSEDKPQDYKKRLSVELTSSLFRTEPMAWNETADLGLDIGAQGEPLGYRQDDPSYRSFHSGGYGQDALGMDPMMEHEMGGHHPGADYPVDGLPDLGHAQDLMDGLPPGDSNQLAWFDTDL
Description: fluorescence polarization competition; full-length beta-catenin, competitor 5FAM-TCF4 10-53. As for the experimental part: as §1

Assay [3] has as its target T3, full-length beta-Catenin (Uniprot ID P35222) (Homo sapiens (Human), UniProt P35222 1-781).
T3 construct: The assay protocol says full-length beta-Catenin (Uniprot ID P35222); tags are not described; also called bCat; B-Catenin
T3 sequence: T1 sequence
The assay is described as follows: fluorescence polarization competition: full-length beta-catenin + 5FAM-TCF4(10-53) probe, peptide titrated. How it is done: as §1

B1: I-747 (peptide)
peptide: Ac-[αAllylPro]DL[B5(11)]DEAAFN[S8]F[Bta][NMeH]-NH2
modifications: staple 1-4, 4-11; not fully specified
notes: Stapled peptide; same description as I-746, later eluting staple isomer composition; also called Ac-PL3-Asp-Leu-B5-Asp-Glu-Ala-Ala-Phe-Asn-S8-Phe-BztA-NMeHis-NH2
By IC50 is commonly meant the concentration needed to halve the response being measured. Read a high IC50 as weaker potency in that assay. As for B1, the IC50 in assay [1] turned out to be 2390 nM.

B2: I-745 (peptide)
peptide: XDLXDEAAFNXFXH
modifications: not fully specified; N-terminal Ac; C-terminal NH2; PL3 at 1, B5 at 4, S8 at 11, BztA at 13, dHis (D-His) at 14; stapled PL3-B5 and B5-S8 by olefin metathesis
notes: Stapled peptide; same description as I-744, later eluting staple isomer composition; also called Ac-PL3-Asp-Leu-B5-Asp-Glu-Ala-Ala-Phe-Asn-S8-Phe-BztA-dHis-NH2
The molecule B2 yielded an IC50 in assay [1] of 80 nM.

B3: I-638 (peptide)
peptide: XDIXDEAAFQXFXP
modifications: not fully specified; As printed: Ac-PL3-Asp-Ile-B5-Asp-Glu-Ala-Ala-Phe-Gln-S8-Phe-BztA-Pro-NH2; N-terminal Ac, C-terminal NH2; PL3 (1), B5 (4), S8 (11), BztA (13); staples PL3-B5 and B5-S8 by olefin metathesis
notes: Stapled peptide composition; also called Ac-PL3-Asp-Ile-B5-Asp-Glu-Ala-Ala-Phe-Gln-S8-Phe-BztA-Pro-NH2
In the case of B3, the IC50 in assay [2] is 3880 nM.

B4: I-732 (peptide)
peptide: XDLXDEAAFNXFXQI
modifications: not fully specified; N-terminal Ac; C-terminal NH2; PL3 at 1, B5 at 4, S8 at 11, BztA at 13; stapled PL3-B5 and B5-S8 by olefin metathesis
notes: Stapled peptide; also called Ac-PL3-Asp-Leu-B5-Asp-Glu-Ala-Ala-Phe-Asn-S8-Phe-BztA-Gln-Ile-NH2
With B4, in assay [1], the IC50 stood at 4220 nM.

B5: I-729 (peptide)
peptide: XDLXDEAAFNXFXQA
modifications: not fully specified; N-terminal Ac; C-terminal NH2; PL3 at 1, B5 at 4, S8 at 11, BztA at 13; stapled PL3-B5 and B5-S8 by olefin metathesis
notes: Stapled peptide; same description as I-730, earlier eluting staple isomer composition; also called Ac-PL3-Asp-Leu-B5-Asp-Glu-Ala-Ala-Phe-Asn-S8-Phe-BztA-Gln-Ala-NH2
Turning to B5, the concentration for half-maximal inhibition (IC50) in assay [1] amounted to 56 nM.

B6: I-740 (peptide)
peptide: XDLXDEAAFNXFXHI
modifications: not fully specified; N-terminal Ac; C-terminal NH2; PL3 at 1, B5 at 4, S8 at 11, BztA at 13; stapled PL3-B5 and B5-S8 by olefin metathesis
notes: Stapled peptide; same description as I-741, earlier eluting staple isomer composition; also called Ac-PL3-Asp-Leu-B5-Asp-Glu-Ala-Ala-Phe-Asn-S8-Phe-BztA-His-Ile-NH2
With B6, the IC50 in assay [1] was found to be 376 nM.

B7: I-738 (peptide)
peptide: XDLXDEAAFNXFXHA
modifications: not fully specified; N-terminal Ac; C-terminal NH2; PL3 at 1, B5 at 4, S8 at 11, BztA at 13; stapled PL3-B5 and B5-S8 by olefin metathesis
notes: also called Ac-PL3-Asp-Leu-B5-Asp-Glu-Ala-Ala-Phe-Asn-S8-Phe-BztA-His-Ala-NH2
Regarding B7, the IC50 in assay [1] turned out to be 63 nM.

B8: I-741 (peptide)
peptide: XDLXDEAAFNXFXHI
modifications: not fully specified; N-terminal Ac; C-terminal NH2; PL3 at 1, B5 at 4, S8 at 11, BztA at 13; stapled PL3-B5 and B5-S8 by olefin metathesis
notes: Stapled peptide; same description as I-740, later eluting staple isomer composition; also called Ac-PL3-Asp-Leu-B5-Asp-Glu-Ala-Ala-Phe-Asn-S8-Phe-BztA-His-Ile-NH2
In assay [1], B8 yielded an IC50 of 226 nM.

B9: I-742 (peptide)
peptide: XDLXDEAAFNXFXHI
modifications: not fully specified; N-terminal Ac; C-terminal NH2; PL3 at 1, B5 at 4, S8 at 11, BztA at 13, dIle (D-Ile) at 15; stapled PL3-B5 and B5-S8 by olefin metathesis
notes: also called Ac-PL3-Asp-Leu-B5-Asp-Glu-Ala-Ala-Phe-Asn-S8-Phe-BztA-His-dIle-NH2
With B9, the IC50 in assay [1] stood at 159 nM.

B10: I-739 (peptide)
peptide: XDLXDEAAFNXFXHA
modifications: not fully specified; N-terminal Ac; C-terminal NH2; PL3 at 1, B5 at 4, S8 at 11, BztA at 13, dAla (D-Ala) at 15; stapled PL3-B5 and B5-S8 by olefin metathesis
notes: also called Ac-PL3-Asp-Leu-B5-Asp-Glu-Ala-Ala-Phe-Asn-S8-Phe-BztA-His-dAla-NH2
Turning to B10, the IC50 in assay [1] came out at 53 nM.

B11: I-640 (peptide)
peptide: XDIXDEAAFQXFXS
modifications: not fully specified; As printed: Ac-PL3-Asp-Ile-B5-Asp-Glu-Ala-Ala-Phe-Gln-S8-Phe-BztA-Ser-NH2; N-terminal Ac, C-terminal NH2; PL3 (1), B5 (4), S8 (11), BztA (13); staples PL3-B5 and B5-S8 by olefin metathesis
notes: Stapled peptide composition; also called Ac-PL3-Asp-Ile-B5-Asp-Glu-Ala-Ala-Phe-Gln-S8-Phe-BztA-Ser-NH2
For the molecule B11, the IC50 in assay [2] amounted to 87 nM.

B12: I-644 (peptide)
peptide: Ac-[αAllylPro]DI[B5(9)]DEAAFQ[S8]F[Bta]W-NH2
modifications: staple 1-4, 4-11
notes: Stapled peptide composition; also called Ac-PL3-Asp-Ile-B5-Asp-Glu-Ala-Ala-Phe-Gln-S8-Phe-BztA-Trp-NH2
With B12, the IC50 in assay [2] was 808 nM.

B13: I-643 (peptide)
peptide: Ac-[αAllylPro]DI[B5(9)]DEAAFQ[S8]F[Bta]W-NH2
modifications: staple 1-4, 4-11
notes: as for B12
For the molecule B13, the half-maximal inhibitory concentration (IC50) in assay [2] was found to be 958 nM.

B14: I-646 (peptide)
peptide: Ac-[αAllylPro]DI[B5(9)]DEAAFQ[S8]F[Bta]V-NH2
modifications: staple 1-4, 4-11
notes: Stapled peptide composition; also called Ac-PL3-Asp-Ile-B5-Asp-Glu-Ala-Ala-Phe-Gln-S8-Phe-BztA-Val-NH2
Regarding B14, the IC50 in assay [2] came to 461 nM.

B15: I-641 (peptide)
peptide: XDIXDEAAFQXFXT
modifications: not fully specified; As printed: Ac-PL3-Asp-Ile-B5-Asp-Glu-Ala-Ala-Phe-Gln-S8-Phe-BztA-Thr-NH2; N-terminal Ac, C-terminal NH2; PL3 (1), B5 (4), S8 (11), BztA (13); staples PL3-B5 and B5-S8 by olefin metathesis
notes: Stapled peptide composition; also called Ac-PL3-Asp-Ile-B5-Asp-Glu-Ala-Ala-Phe-Gln-S8-Phe-BztA-Thr-NH2
Regarding B15, the IC50 in assay [2] is 122 nM.

B16: I-645 (peptide)
peptide: Ac-[αAllylPro]DI[B5(9)]DEAAFQ[S8]F[Bta]V-NH2
modifications: staple 1-4, 4-11
notes: as for B14
In the case of B16, the IC50 in assay [2] was 395 nM.

B17: I-642 (peptide)
peptide: XDIXDEAAFQXFXT
modifications: not fully specified; As printed: Ac-PL3-Asp-Ile-B5-Asp-Glu-Ala-Ala-Phe-Gln-S8-Phe-BztA-Thr-NH2; N-terminal Ac, C-terminal NH2; PL3 (1), B5 (4), S8 (11), BztA (13); staples PL3-B5 and B5-S8 by olefin metathesis
notes: as for B15
B17 came in with an IC50 in assay [2] of 118 nM.

B18: I-441 (peptide)
peptide: Ac-[αAllylPro]DA[B5(21)]DEAAFN[S8][Phe(2-NO2)][Bta]Q-NH2
modifications: staple 1-4, 4-11
notes: Stapled (stitched) peptide with non-natural residues
One may read the EC50 as the concentration giving half of the maximal effect. With B18, the EC50 in assay [3] came to 133 nM.

B19: I-435 (peptide)
peptide: Ac-[αAllylPro]DA[B5(24)]DEAAFN[S8][Phe(2-Cl)][Bta]Q-NH2
modifications: staple 1-4, 4-11
notes: as for B18
Consider B19, for which the EC50 in assay [3] is 70 nM.
